The values that follow come from article doi:10.1101/2022.01.27.478073 (bioRxiv, 2022).

The assay addresses T1, His-AtNRT1.4 (Arabidopsis, UniProt Q9SZY4 1-577).
T1 sequence (looked up): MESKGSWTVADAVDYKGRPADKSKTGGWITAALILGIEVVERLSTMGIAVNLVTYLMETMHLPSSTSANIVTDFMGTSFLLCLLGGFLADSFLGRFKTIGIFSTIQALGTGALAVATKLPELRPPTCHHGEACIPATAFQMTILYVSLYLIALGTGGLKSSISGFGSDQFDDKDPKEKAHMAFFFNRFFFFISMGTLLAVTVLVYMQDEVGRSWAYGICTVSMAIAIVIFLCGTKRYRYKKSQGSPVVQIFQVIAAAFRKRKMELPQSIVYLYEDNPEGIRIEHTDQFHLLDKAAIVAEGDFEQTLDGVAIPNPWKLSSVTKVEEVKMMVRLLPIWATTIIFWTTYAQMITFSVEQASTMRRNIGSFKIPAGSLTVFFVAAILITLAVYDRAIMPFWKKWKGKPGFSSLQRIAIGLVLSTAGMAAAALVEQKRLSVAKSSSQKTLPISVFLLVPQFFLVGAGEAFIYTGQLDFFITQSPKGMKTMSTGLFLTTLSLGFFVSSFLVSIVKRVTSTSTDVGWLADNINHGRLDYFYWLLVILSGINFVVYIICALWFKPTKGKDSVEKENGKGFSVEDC
Put plainly: pull-down.

B1: GST-AtGPA1 (natural protein, Arabidopsis, UniProt P18064 1-383, looked up)
chain: MGLLCSRSRHHTEDTDENTQAAEIERRIEQEAKAEKHIRKLLLLGAGESGKSTIFKQIKLLFQTGFDEGELKSYVPVIHANVYQTIKLLHDGTKEFAQNETDSAKYMLSSESIAIGEKLSEIGGRLDYPRLTKDIAEGIETLWKDPAIQETCARGNELQVPDCTKYLMENLKRLSDINYIPTKEDVLYARVRTTGVVEIQFSPVGENKKSGEVYRLFDVGGQRNERRKWIHLFEGVTAVIFCAAISEYDQTLFEDEQKNRMMETKELFDWVLKQPCFEKTSFMLFLNKFDIFEKKVLDVPLNVCEWFRDYQPVSSGKQEIEHAYEFVKKKFEELYYQNTAPDRVDRVFKIYRTTALDQKLVKKTFKLVDETLRRRNLLEAGLL
As for B1, the binding result was “binds”.
